In FireProtDB (doi:10.1021/tx3002115):

B1: DNA polymerase IV, Q97W02 (parent)
chain: MIVLFVDFDYFYAQVEEVLNPSLKGKPVVVCVFSGRFEDSGAVATANYEARKFGVKAGIPIVEAKKILPNAVYLPMRKEVYQQVSSRIMNLLREYSEKIEIASIDEAYLDISDKVRDYREAYNLGLEIKNKILEKEKITVTVGISKNKVFAKIAADMAKPNGIKVIDDEEVKRLIRELDIADVPGIGNITAEKLKKLGINKLVDTLSIEFDKLKGMIGEAKAKYLISLARDEYNEPIRTRVRKSIGRIVTMKRNSRNLEEIKPYLFRAIEESYYKLDKRIPKAIHVVAVTEDLDIVSRGRTFPHGISKETAYSESVKLLQKILEEDERKIRRIGVRFSKFIEAIGLDKFFDT

Variants of: B1
Conditions: Saccharolobus solfataricus (strain ATCC 35092 / DSM 1617 / JCM 11322 / P2); pH 7.5; Thermal; CD; Na3PO4; NaCl MgCl2 50000 5000; structure 2RDI; whole UniProt chain shown

Variant	Tm	unfolding enthalpy (calorimetric)
MIVLFVDFDYFYAQVEEVLNPSLKGKPVVVCVFSGRFEDSGAVATANYEARKFGVKAGIPIVEAKKILPNAVYLPMRKEVYQQVSSRIMNLLREYSEKIAIASIDEAYLDISDKVRDYREAYNLGLEIKNKILEKEKITVTVGISKNKVFAKIAADMAKPNGIKVIDDEEVKRLIRELDIADVPGIGNITAEKLKKLGINKLVDTLSIEFDKLKGMIGEAKAKYLISLARDEYNAPIRTAVRKSIGRIVTMKRNSRNLEEIKPYLFRAIEESYYKLDKRIPKAIHVVAVTEDLDIVSRGRTFPHGISKETAYSESVKLLQKILEEDERKIRRIGVRFSKFIEAIGLDKFFDT [E100A E235A R240A]	88.3 °C	193 kcal/mol
MIVLFVDFDYFYAQVEEVLNPSLKGKPVVVCVFSGRFEDSGAVATANYEARKFGVKAGIPIVEAKKILPNAVYLPMRKEVYQQVSSRIMNLLREYSEKIAIASIDEAYLDISDKVRDYREAYNLGLEIKNKILEKEKITVTVGISKNAVFAKIAADMAKPNGIKVIDDEEVKRLIRELDIADVPGIGNITAEKLKKLGINKLVDTLSIEFDKLKGMIGEAKAKYLISLARDEYNEPIRTRVRKSIGRIVTMKRNSRNLEEIKPYLFRAIEESYYKLDKRIPKAIHVVAVTEDLDIVSRGRTFPHGISKETAYSESVKLLQKILEEDERKIRRIGVRFSKFIEAIGLDKFFDT [E100A K148A]	89.4 °C	135 kcal/mol
MIVLFVDFDYFYAQVEEVLNPSLKGKPVVVCVFSGRFEDSGAVATANYEARKFGVKAGIPIVEAKKILPNAVYLPMRKEVYQQVSSRIMNLLREYSEKIEIASIDEAYLDISDKVRDYREAYNLGLEIKNKILEKEKITVTVGISKNKVFAKIAADMAKPNGIKVIDDEEVKRLIRELDIADVPGIGNITAEKLKKLGINKLVDTLSIEFDKLKGMIGEAKAKYLISLARDEYNAPIRTAVRKSIGRIVTMKRNSRNLEEIKPYLFRAIEESYYKLDKRIPKAIHVVAVTEDLDIVSRGRTFPHGISKETAYSESVKLLQKILEEDERKIRRIGVRFSKFIEAIGLDKFFDT [E235A R240A]	90.3 °C	125 kcal/mol
MIVLFVDFDYFYAQVEEVLNPSLKGKPVVVCVFSGRFEDSGAVATANYEARKFGVKAGIPIVEAKKILPNAVYLPMRKEVYQQVSSRIMNLLREYSEKIEIASIDEAYLDISDKVRDYREAYNLGLEIKNKILEKEKITVTVGISKNKVFAKIAADMAKPNGIKVIDDEEVKRLIRELDIADVPGIGNITAEKLKKLGINKLVDTLSIEFDKLKGMIGEAKAKYLISLARDEYNEPIRTAVRKSIGRIVTMKRNSRNLEEIKPYLFRAIEESYYKLDKRIPKAIHVVAVTEDLDIVSRGRTFPHGISKETAYSESVKLLQKILEEDERKIRRIGVRFSKFIEAIGLDKFFDT [R240A]	96.5 °C	93 kcal/mol
MIVLFVDFDYFYAQVEEVLNPSLKGKPVVVCVFSGRFEDSGAVATANYEARKFGVKAGIPIVEAKKILPNAVYLPMRKEVYQQVSSRIMNLLREYSEKIEIASIDEAYLDISDKVRDYREAYNLGLEIKNKILEKEKITVTVGISKNAVFAKIAADMAKPNGIKVIDDEEVKRLIRELDIADVPGIGNITAEKLKKLGINKLVDTLSIEFDKLKGMIGEAKAKYLISLARDEYNAPIRTAVRKSIGRIVTMKRNSRNLEEIKPYLFRAIEESYYKLDKRIPKAIHVVAVTEDLDIVSRGRTFPHGISKETAYSESVKLLQKILEEDERKIRRIGVRFSKFIEAIGLDKFFDT [K148A E235A R240A]	90.3 °C	172 kcal/mol
MIVLFVDFDYFYAQVEEVLNPSLKGKPVVVCVFSGRFEDSGAVATANYEARKFGVKAGIPIVEAKKILPNAVYLPMRKEVYQQVSSRIMNLLREYSEKIAIASIDEAYLDISDKVRDYREAYNLGLEIKNKILEKEKITVTVGISKNAVFAKIAADMAKPNGIKVIDDEEVKRLIRELDIADVPGIGNITAEKLKKLGINKLVDTLSIEFDKLKGMIGEAKAKYLISLARDEYNAPIRTAVRKSIGRIVTMKRNSRNLEEIKPYLFRAIEESYYKLDKRIPKAIHVVAVTEDLDIVSRGRTFPHGISKETAYSESVKLLQKILEEDERKIRRIGVRFSKFIEAIGLDKFFDT [E100A K148A E235A R240A]	90 °C	163 kcal/mol
